The results in this text go back to paper PMC3326527 (Journal of molecular biology, 2005).

The data set deals with the molecule itself. Nature of the data set: crystal structure.

B1: UDP-galactopyranose mutase from Mycobacterium tuberculosis (enzyme)
chain: MQPMTARFDLFVVGSGFFGLTIAERVATQLDKRVLVLERRPHIGGNAYSEAEPQTGIEVHKYGAHLFHTSNKRVWDYVRQFTDFTDYRHRVFAMHNGQAYQFPMGLGLVSQFFGKYFTPEQARQLIAEQAAEIDTADAQNLEEKAISLIGRPLYEAFVKGYTAKQWQTDPKELPAANITRLPVRYTFDNRYFSDTYEGLPTDGYTAWLQNMAADHRIEVRLNTDWFDVRGQLRPGSPAAPVVYTGPLDRYFDYAEGRLGWRTLDFEVEVLPIGDFQGTAVMNYNDLDVPYTRIHEFRHFHPERDYPTDKTVIMREYSRFAEDDDEPYYPINTEADRALLATYRARAKSETASSKVLFGGRLGTYQYLDMHMAIASALNMYDNVLAPHLRDGVPLLQDGA
Take B1: the binding result is recorded as “binds”.
